This note sets out measurements from article PMC10782996.

For data set [1], the system named is T1, AbrB3 (Paenibacillus polymyxa SC2), ORF:7049d318.
T1 sequence: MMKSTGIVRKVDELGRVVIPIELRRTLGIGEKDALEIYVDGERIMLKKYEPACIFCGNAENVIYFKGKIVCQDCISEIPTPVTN
Put plainly: EMSA. The settings on record: EMSA: Beyotime chemiluminescent EMSA kit buffer (composition and pH not stated), 10 uL, 20 min at room temperature, native PAGE in 0.5x TBE, 70 V for 70 min ….

For data set [2], the system named is T2, Spo0A (Paenibacillus polymyxa SC2), ORF:894240d5.
T2 sequence: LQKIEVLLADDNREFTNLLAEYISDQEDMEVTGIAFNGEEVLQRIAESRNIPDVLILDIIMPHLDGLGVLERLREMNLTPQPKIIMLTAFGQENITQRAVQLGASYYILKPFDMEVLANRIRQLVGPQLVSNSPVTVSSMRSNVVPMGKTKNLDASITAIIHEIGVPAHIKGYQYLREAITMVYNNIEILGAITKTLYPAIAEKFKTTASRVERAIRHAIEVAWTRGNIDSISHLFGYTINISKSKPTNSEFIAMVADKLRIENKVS
In words: EMSA. The settings on record: EMSA: Beyotime chemiluminescent EMSA kit buffer (composition and pH not stated), 10 uL, 20 min at room temperature, native PAGE in 0.5x TBE, 70 V for 70 min ….

Take “ATGTAATTCACAGCCCCTTAACGTATATTACTAAAAATTTCTTTGCCAACTAGAATATTGATTCTGAATATATATCGGCAATCCCCTATAATTCCTCAACACGTTTTCCACCATTAAACAAACATATTATGGGAATTACTTGTATACTTTTCAACAGTTTACTTAATATATGCGATTGCTTCTCTAAGCCTATTCTTTTTTATCATAATTATTTAGTATTATAAGGATATAAAAAAGGAGGTTATCAT (double strand) [Pabh]”: the binding result in data set [1] and in data set [2] was “binds” each time.
Turning to “TGTACTTCCTCCTTATTGAGTGTTATTCCATTGGGACATCTGTTTGCATTAAATAAATATTTCTTGTCGGAGTATATGATTTCGACATCGAATTATGAATTCCTTCTGTCGAAAATTATTTTTATTTATTTTTTTTATTAATTCAATTATAATTGAATTTTTATCTTGCAATTCTGAGTTATTCCCCTGCTTTTCGACAAAAAAATCTTAAGGCCA (double strand) [Pspo0A]”, the binding result in data set [2] is listed as “binds”.
